From US20230312722A1 (NONA BIOSCIENCES SUZHOU, published 2023)
Like-named read-outs stand apart in the source and are kept apart here.

What was measured:
[1] = target: T1, cynomolgus monkey B7H4 on the cell surface (cynomolgus monkey, UniProt A0A2K5U6P5 25-282); experiment: FACS, CHOK1/cyno B7H4 cells
T1 construct: whole, on cells; also called CHOK1/cyno B7H4
T1 sequence: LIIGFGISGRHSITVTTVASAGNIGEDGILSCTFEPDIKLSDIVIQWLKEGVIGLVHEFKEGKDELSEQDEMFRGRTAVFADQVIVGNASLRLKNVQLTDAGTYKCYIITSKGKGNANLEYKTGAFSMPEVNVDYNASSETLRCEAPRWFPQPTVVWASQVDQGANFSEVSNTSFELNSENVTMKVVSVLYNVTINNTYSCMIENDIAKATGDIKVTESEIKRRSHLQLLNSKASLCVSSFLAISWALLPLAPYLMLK
Method: (§1) This example is intended to investigate the in vitro binding activity of anti-human B7H4 H2L2 monoclonal antibody to human/cynomolgus monkey/mouse B7H4. Antibody binding experiments at the cellular level were performed using CHOK1 cell line overexpressing human B7H4 (CHOK1/hu B7H4, Harbour BioMed), CHOK1 cell line overexpressing cynomolgus monkey B7H4 (CHOK1/cyno B7H4, Harbour BioMed), CHOK1 cell line overexpressing mouse B7H4 (CHOK1/m B7H4, Harbour BioMed) and SK-BR-3 cell line (ATCC® HTB-30) highly expressing human B7H4. Briefly, CHOK1/hu B7H4 cells, CHOK1/cyno B7H4 cells, CHOK1/m B7H4 cells or SK-BR-3 cells were digested and resuspended with PBS containing 2% BSA. The cell density was adjusted to 1×10⁶ cells/mL. The cells were seeded in a 96-well V-bottom plate (Corning, #3894) at 100 μL/well, followed by the addition of test antibodies diluted in a 3-fold concentration gradient of 2 times the final concentration, each at 100 μL/well. The cells were incubated at 4° C. for 2 h away from light. Thereafter, the cells in each well were rinsed twice with 100 μL of pre-cooled PBS containing 2% BSA, and centrifuged at 500 g at 4° C. for 5 min, and then the supernatant was discarded. Then 100 μL of a fluorescent secondary antibody (Alexa Fluor 488-conjugated AffiniPure Goat Anti-Human IgG, Fcγ Fragment Specific, Jackson, #109-545-098, 1:500 diluted) was added to each well. The plate was incubated away from light at 4° C. for 1 h. The cells in each well were washed twice with 100 μL of pre-cooled PBS containing 2% BSA, and centrifuged at 500 g at 4° C. for 5 minutes, and then the supernatant was discarded. Finally, the cells in each well were resuspended with 200 μL of pre-cooled PBS containing 2% BSA, and the fluorescence signal values were read using an ACEA Novocyte3000 flow cytometer.

[2] = target: T1, cynomolgus monkey B7H4 on the cell …; experiment: FACS, CHOK1/cyno B7H4 cells; remark: listed apart in the source
Method: as §1, with “Then 100 μL of a fluorescent secondary antibody (Alexa Fluor 488-conjugated AffiniPure Goat Anti-Human IgG, Fcγ Fragment Specific, Jackson, #109-545-098, 1:500 diluted) was added to each well. The plate was incubated away from light at 4° C. for 1 h. The cells in each well were washed twice with 100 μL of pre-cooled PBS containing 2% BSA, and centrifuged at 500 g at 4° C. for 5 minutes, and then the supernatant was discarded.” left out

[3] = target: T2, Human B7H4 (his tag), Sino Biological #10738-H08H (human, UniProt Q7Z7D3 25-259); experiment: SPR (Biacore T200), antibody captured on Protein A, B7H4-his as analyte, 1:1 fit
T2 construct: extracellular domain; Bought protein; also called hB7H4-ECD-his
T2 sequence (looked up): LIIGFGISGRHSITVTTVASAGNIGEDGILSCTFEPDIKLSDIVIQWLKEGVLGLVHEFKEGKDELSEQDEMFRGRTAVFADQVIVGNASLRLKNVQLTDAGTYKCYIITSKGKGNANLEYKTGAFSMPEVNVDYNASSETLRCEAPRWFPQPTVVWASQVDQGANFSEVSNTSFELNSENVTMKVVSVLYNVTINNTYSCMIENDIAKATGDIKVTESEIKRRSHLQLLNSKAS
Method: 10×HBS-EP+ (GE Healthcare, #BR-1006-69) was diluted 10-fold and then taken as an experimental buffer. The flow rate was set at 10 μL/min, and Protein A was coupled to 4 channels of a chip CM5 (GE Healthcare, #BR-1005-30) through the following procedures: 1) the injection time was set to 800 s, and a fresh mixture of 50 mM NHS and 200 mM EDC was injected into the 4 channels in a volume ratio of 1:1; 2) Protein A was diluted to 20 μg/mL with sodium acetate (GE Healthcare, #BR-1003-50) at pH 4.5 and injected into each channel for 800 s; and 3) 1 M ethanolamine at pH 8.5 was injected for 800 s to block the remaining active carboxyl groups on the chip surface. After blocking, the instrument was equilibrated with 1×HBS-EP+buffer for 2 hours, and the final coupling level of Protein A was about 2000 RU.
A multi-cycle kinetics mode was set at Biacore T200, and each cycle included antibody capture, analyte binding and chip regeneration. […] Finally, 10 mM glycine-hydrochloric acid at pH 1.5 (GE Healthcare, #BR-1003-54) was injected at the same flow rate for 30 s to regenerate the chip.
The experimental results were analyzed using the Biacore T200 analysis software 2.0, with channel 1 subtracted as a reference channel and a 1:1 kinetic fitting model selected as an analysis model.

[4] = target: T3, B7-H4 (Acro Biosystems, #B74-H82E2) (UniProt Q7Z7D3 29-258); experiment: BLI epitope competition; 1st Ab = row; competitor (2nd Ab) PR002418; inhibition of the 2nd Ab signal
T3 construct: Bought protein; also called B7-H4 captured on SA sensor
T3 sequence (looked up): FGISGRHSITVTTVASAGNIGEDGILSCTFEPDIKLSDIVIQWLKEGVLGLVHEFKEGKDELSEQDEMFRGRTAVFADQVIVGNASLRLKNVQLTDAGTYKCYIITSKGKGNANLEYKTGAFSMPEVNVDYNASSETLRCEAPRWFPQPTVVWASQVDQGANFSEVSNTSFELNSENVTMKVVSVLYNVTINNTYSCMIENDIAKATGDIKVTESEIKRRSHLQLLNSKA
Method: Step one, acquisition of 100% signal of antibodies: B7-H4 (Acro Biosystems, #B74-H82E2-200 μg) was captured at a capture height of 0.25 nm using an SA sensor (Fortebio, #18-5019). The sensor was equilibrated in a buffer for 120 s and then immersed in each antibody diluted to 100 nM for 240 s, and the final signal of the antibody binding to B7-H4 was recorded as the 100% signal of the antibody. Step two, epitope competition experiment: B7-H4 was captured using an SA sensor at a capture height of 0.25 nm. The sensor was immersed in a primary antibody (at a concentration of 100 nM) for 240 s, and then the SA sensor was immersed in a mixture of the primary and secondary antibodies (both at a final concentration of 100 nM) for 240 s, and the difference in signals after immersion of the sensor in the antibody mixture was recorded as the signal of the antibody as the secondary antibody. The inhibition rate was calculated according to the following formula: […]

B1: Control antibody 1 (PR000157) (antibody, V domains shown)
VH: EVQLVQSGAEVKKPGASVKVSCKASGYTFTSYWIGWVRQAPGQGLEWIGDIYPGGGYTNYNEKFKGRVTITRDTSTSTAYLELSSLRSEDTAVYYCARLAGSSYRGAMDSWGQGTLVTVSS
VL: DIQMTQSPSSLSASVGDRVTITCKASQGFNKYVAWYQQKPGKAPKLLIYYTSTLQPGVPSRFSGSGSGRDYTLTISSLQPEDFATYYCLQYGDLLYAFGQGTKVEIKR
notes: Anti-B7H4 IgG1 control antibody from WO2016040724A1; also called 1D11.v1.9varC2
In the case of B1, the EC50 [1] is reported as 2.06 nM, the “Maximum MFI” value [1] is reported as 1.32e+06 MFI and the EC50 [2] is reported as 2.1 nM. For the same binder, the “Maximum MFI” value [2] was 1.99e+06 MFI, the Kd [3] was 4.67 nM and the koff [3] was 0.000189 s⁻¹. The kon [3] was 40400 M⁻¹ s⁻¹ and the “Competitive inhibition rate (%)” value [4] was 4.55%.
